Assays:
Experiment in all cases: cell-based or functional assay
[1] = target: HIV-1 NL4-3 Gag with HIV-1/SIVmac239 p6 chimera 17-23(b) (HIV-1 (NL4-3); SIVmac239)
[2] = target: HIV-1 NL4-3 Gag with HIV-1/SIVmac239 p6 chimera 17-24 (HIV-1 (NL4-3); SIVmac239)
[3] = target: HIV-1 NL4-3 Gag with HIV-1/SIVmac239 p6 chimera 17-25 (HIV-1 (NL4-3); SIVmac239)
[4] = target: HIV-1 NL4-3 Gag with HIV-1/SIVmac239 p6 chimera 17-26 (HIV-1 (NL4-3); SIVmac239)
[5] = target: HIV-1 NL4-3 Gag with HIV-1/SIVmac239 p6 chimera 17-27 (HIV-1 (NL4-3); SIVmac239)
[6] = target: HIV-1 NL4-3 Gag with HIV-1/SIVmac239 p6 chimera 17-28 (HIV-1 (NL4-3); SIVmac239)
[7] = target: HIV-1 NL4-3 Gag with HIV-1/SIVmac239 p6 chimera 17-38 (HIV-1 (NL4-3); SIVmac239)
[8] = target: HIV-1 NL4-3 Gag with HIV-1/SIVmac239 p6 chimera 17-48 (HIV-1 (NL4-3); SIVmac239)
[9] = target: HIV-1 NL4-3 Gag with p6 point mutation F15A (HIV-1 (NL4-3)) (UniProt P12493)
[10] = target: HIV-1 NL4-3 Gag with p6 point mutation F17A (HIV-1 (NL4-3)) (UniProt P12493)

HIV-1 Vpr, myc-tagged (expression vector pcVpr.myc)
Vpr packaging into virions (immunoblot of pelleted virions) (fold of wild-type) [1]: 0.33
Vpr packaging into virions (immunoblot of pelleted virions) (fold of wild-type) [2]: 0.33
Vpr packaging into virions (immunoblot of pelleted virions) (fold of wild-type) [3]: 0.33
Vpr packaging into virions (immunoblot of pelleted virions) (fold of wild-type) [4]: 0.33
Vpr packaging into virions (immunoblot of pelleted virions) (fold of wild-type) [5]: 0.33
Vpr packaging into virions (immunoblot of pelleted virions) (% of wild-type) [6]: 70
Vpr packaging into virions (immunoblot of pelleted virions) (fold of wild-type) [7]: 0.33
Vpr packaging into virions (immunoblot of pelleted virions) (fold of wild-type) [8]: 0.33
Vpr packaging into virions (immunoblot of pelleted virions) (% decrease against wild-type) [9]: 80
Vpr packaging into virions (immunoblot of pelleted virions) (% decrease against wild-type) [10]: 80

Reference: patent US20130183334A1
